System: recombinant human cathelin-like protein (cathelin-like domain of hCAP18, residues 31-131), after removal of the N-terminal tag with enterokinase
Sequence (chain, as listed by the source): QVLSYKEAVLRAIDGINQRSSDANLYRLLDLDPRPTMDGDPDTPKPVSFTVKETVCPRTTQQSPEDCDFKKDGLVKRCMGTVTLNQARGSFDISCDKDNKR

Chain of human liver cathepsin L (Calbiochem) (chain, as listed by the source): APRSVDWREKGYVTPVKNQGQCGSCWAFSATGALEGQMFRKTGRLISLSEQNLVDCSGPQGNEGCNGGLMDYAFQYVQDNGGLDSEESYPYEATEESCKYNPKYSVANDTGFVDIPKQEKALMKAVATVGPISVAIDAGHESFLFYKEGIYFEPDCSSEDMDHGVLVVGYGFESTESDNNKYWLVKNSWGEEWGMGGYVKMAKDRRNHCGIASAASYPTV

Substance: human liver cathepsin L (Calbiochem)
- hydrolysis of Z-Phe-Arg-AMC by cathepsin L alone and with cathelin-like protein: Data demonstrate inhibition of cathepsin L by the addition of cathelin-like recombinant protein
- slope of fluorescence generation (Z-Phe-Arg-AMC hydrolysis) with cathelin-like protein; cathepsin L alone gave 1.31: slope=1.31 vs 0.71, respectively
